Among the data in publication PMC2137744 are yield of doubly labeled 7S material values, retold here.

In this assay the target is H chains of human 7S γ-globulin reduced without alkylation (human). In words: co-sedimentation.

For the substance “L chains of human 7S γ-globulin reduced without alkylation (natural protein)”, the yield of doubly labeled 7S material came out at 30 per cent.
